Experiments:
[1] = molecular target: oligomer-enriched preparation of the Aβ1-42 peptide (Example 16); assay: ELISA, fraction coated at 2.2 µM; antibody dilution 1:64 (start 0.5 µg/ml)
[2] = molecular target: monomer-enriched preparation of the Aβ1-42 peptide (Example 16); assay: as above
[3] = molecular target: oligomer-enriched preparation of the Aβ1-42 peptide (Example 16); assay: ELISA, fraction coated at 2.2 µM; assay 1; antibody dilution 1:16 (start 0.5 µg/ml)
[4] = molecular target: monomer-enriched preparation of the Aβ1-42 peptide (Example 16); assay: as above
[5] = molecular target: high molecular weight (HMW) proto-fibrillar (PF) oligomer enriched preparation of the Aβ1-42 peptide (Example 15) (human); assay: ELISA, fraction coated at 2 µM; antibody 0.5 µg/ml
[6] = molecular target: low molecular weight (LMW) monomeric preparation of the Aβ1-42 peptide (Example 15) (human); assay: ELISA, fraction coated at 2 µM; antibody 0.5 µg/ml
[7] = molecular target: oligomer-enriched preparation of the Aβ1-42 peptide (Example 16); assay: ELISA, fraction coated at 2.2 µM; assay 3; antibody dilution 1:64 (start 0.5 µg/ml)
[8] = molecular target: monomer-enriched preparation of the Aβ1-42 peptide (Example 16); assay: as above
[9] = molecular target: high molecular weight (HMW) proto-fibrillar (PF) oligomer enriched preparation of the Aβ1-42 peptide (Example 15) (human); assay: ELISA, fraction coated at 2 µM; antibody 0.0156 µg/ml
[10] = molecular target: low molecular weight (LMW) monomeric preparation of the Aβ1-42 peptide (Example 15) (human); assay: as above
[11] = molecular target: oligomer-enriched preparation of the Aβ1-42 peptide (Example 16); assay: ELISA, fraction coated at 2.2 µM; assay 2; antibody dilution 1:8 (start 0.5 µg/ml)
[12] = molecular target: oligomer-enriched preparation of the Aβ1-42 peptide (Example 16); assay: ELISA, fraction coated at 2.2 µM; antibody dilution 1:16 (start 0.5 µg/ml)
[13] = molecular target: monomer-enriched preparation of the Aβ1-42 peptide (Example 16); assay: as above
[14] = molecular target: oligomer-enriched preparation of the Aβ1-42 peptide (Example 16); assay: ELISA, fraction coated at 2.2 µM; assay 3; antibody dilution 1:128 (start 0.5 µg/ml)
[15] = molecular target: monomer-enriched preparation of the Aβ1-42 peptide (Example 16); assay: as above
[16] = molecular target: high molecular weight (HMW) proto-fibrillar (PF) oligomer enriched preparation of the Aβ1-42 peptide (Example 15) (human); assay: ELISA, fraction coated at 2 µM; antibody 1 µg/ml
[17] = molecular target: low molecular weight (LMW) monomeric preparation of the Aβ1-42 peptide (Example 15) (human); assay: ELISA, fraction coated at 2 µM; antibody 1 µg/ml
[18] = molecular target: oligomer-enriched preparation of the Aβ1-42 peptide (Example 16); assay: ELISA, fraction coated at 2.2 µM; assay 1; antibody dilution 1:2 (start 0.5 µg/ml)
[19] = molecular target: monomer-enriched preparation of the Aβ1-42 peptide (Example 16); assay: as above
[20] = molecular target: oligomer-enriched preparation of the Aβ1-42 peptide (Example 16); assay: ELISA, fraction coated at 2.2 µM; antibody dilution 1:32 (start 0.5 µg/ml)
[21] = molecular target: monomer-enriched preparation of the Aβ1-42 peptide (Example 16); assay: as above
[22] = molecular target: oligomer-enriched preparation of the Aβ1-42 peptide (Example 16); assay: ELISA, fraction coated at 2.2 µM; antibody dilution 1:4 (start 0.5 µg/ml)
[23] = molecular target: monomer-enriched preparation of the Aβ1-42 peptide (Example 16); assay: as above
[24] = molecular target: oligomer-enriched preparation of the Aβ1-42 peptide (Example 16); assay: ELISA, fraction coated at 2.2 µM; assay 2; antibody dilution 1:1 (start 0.5 µg/ml)
[25] = molecular target: monomer-enriched preparation of the Aβ1-42 peptide (Example 16); assay: as above
[26] = molecular target: oligomer-enriched preparation of the Aβ1-42 peptide (Example 16); assay: ELISA, fraction coated at 2.2 µM; assay 3; antibody dilution 1:2 (start 0.5 µg/ml)
[27] = molecular target: monomer-enriched preparation of the Aβ1-42 peptide (Example 16); assay: as above
[28] = molecular target: high molecular weight (HMW) proto-fibrillar (PF) oligomer enriched preparation of the Aβ1-42 peptide (Example 15) (human); assay: ELISA, fraction coated at 2 µM; antibody 0.0313 µg/ml
[29] = molecular target: low molecular weight (LMW) monomeric preparation of the Aβ1-42 peptide (Example 15) (human); assay: as above
[30] = molecular target: oligomer-enriched preparation of the Aβ1-42 peptide (Example 16); assay: ELISA, fraction coated at 2.2 µM; antibody dilution 1:1 (start 0.5 µg/ml)
[31] = molecular target: monomer-enriched preparation of the Aβ1-42 peptide (Example 16); assay: as above
[32] = molecular target: high molecular weight (HMW) proto-fibrillar (PF) oligomer enriched preparation of the Aβ1-42 peptide (Example 15) (human); assay: ELISA, fraction coated at 2 µM; antibody 0.0625 µg/ml
[33] = molecular target: low molecular weight (LMW) monomeric preparation of the Aβ1-42 peptide (Example 15) (human); assay: as above

Sequence of oligomer-enriched preparation of the Aβ1-42 peptide (Example 16) (peptide, as listed by the source): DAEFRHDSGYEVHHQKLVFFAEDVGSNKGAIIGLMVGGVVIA
Sequence of monomer-enriched preparation of the Aβ1-42 peptide (Example 16) (peptide, as listed by the source): as above
Sequence of high molecular weight (HMW) proto-fibrillar (PF) oligomer enriched preparation of the Aβ1-42 peptide (Example 15) (human) (peptide, as listed by the source): as above
Sequence of low molecular weight (LMW) monomeric preparation of the Aβ1-42 peptide (Example 15) (human) (peptide, as listed by the source): as above

O.D. (405 nm), mean of 3 assays [1]: 0.92 O.D.
O.D. (405 nm), mean of 3 assays [2]: 0.94 O.D.
O.D. (405 nm) [3]: 1.78 O.D.
O.D. (405 nm) [4]: 1.78 O.D.
O.D. (405 nm) [5]: 2 O.D.
O.D. (405 nm) [6]: 2.13 O.D.
O.D. (405 nm) [7]: 0.95 O.D.
O.D. (405 nm) [8]: 1.08 O.D.
O.D. (405 nm) [9]: 0.201 O.D.
O.D. (405 nm) [10]: 0.207 O.D.
O.D. (405 nm) [11]: 2.99 O.D.
O.D. (405 nm), mean of 3 assays [12]: 1.92 O.D.
O.D. (405 nm), mean of 3 assays [13]: 1.98 O.D.
O.D. (405 nm) [14]: 0.66 O.D.
O.D. (405 nm) [15]: 0.86 O.D.
O.D. (405 nm) [16]: 2.55 O.D.
O.D. (405 nm) [17]: 2.68 O.D.
O.D. (405 nm) [18]: 3.39 O.D.
O.D. (405 nm) [19]: 3.3 O.D.
O.D. (405 nm), mean of 3 assays [20]: 1.32 O.D.
O.D. (405 nm), mean of 3 assays [21]: 1.36 O.D.
O.D. (405 nm), mean of 3 assays [22]: 3.37 O.D.
O.D. (405 nm), mean of 3 assays [23]: 3.27 O.D.
O.D. (405 nm) [24]: 3.67 O.D.
O.D. (405 nm) [25]: 3.77 O.D.
O.D. (405 nm) [26]: 3.83 O.D.
O.D. (405 nm) [27]: 4 O.D.
O.D. (405 nm) [28]: 0.286 O.D.
O.D. (405 nm) [29]: 0.329 O.D.
O.D. (405 nm), mean of 3 assays [30]: 3.64 O.D.
O.D. (405 nm), mean of 3 assays [31]: 3.83 O.D.
O.D. (405 nm) [32]: 0.544 O.D.
O.D. (405 nm) [33]: 0.574 O.D.
Substance: 6E10 control antibody

Source: US20090017041A1
